Test results as given in publication PMC5508204, “Escherichia coli FtsA forms lipid-bound minirings that antagonize lateral interactions between FtsZ protofilaments” (Nature Communications, 2017).

B1: Escherichia coli FtsA (natural protein, E. coli, UniProt P0ABH0 1-420, looked up)
chain: MIKATDRKLVVGLEIGTAKVAALVGEVLPDGMVNIIGVGSCPSRGMDKGGVNDLESVVKCVQRAIDQAELMADCQISSVYLALSGKHISCQNEIGMVPISEEEVTQEDVENVVHTAKSVRVRDEHRVLHVIPQEYAIDYQEGIKNPVGLSGVRMQAKVHLITCHNDMAKNIVKAVERCGLKVDQLIFAGLASSYSVLTEDERELGVCVVDIGGGTMDIAVYTGGALRHTKVIPYAGNVVTSDIAYAFGTPPSDAEAIKVRHGCALGSIVGKDESVEVPSVGGRPPRSLQRQTLAEVIEPRYTELLNLVNEEILQLQEKLRQQGVKHHLAAGIVLTGGAAQIEGLAACAQRVFHTQVRIGAPLNITGLTDYAQEPYYSTAVGLLHYGKESHLNGEAEVEKRVTASVGSWIKRLNSWLRKEF
notes: FtsA, actin homologue of the divisome, Escherichia coli, wild type; ATP is thought to be present in the preparation; 0.05 mM ADP was added for storage; also called WT FtsA; His6-tagged FtsA

Legend:
[1] = molecular target: the molecule itself; assay: negative stain transmission electron microscopy on lipid monolayers; E. coli polar lipid monolayer under an EM grid, on storage buffer lacking EDTA (50 mM Tris pH 7.5, 250 mM KCl, 10 mM MgCl2, 10% glycerol). Added in turn: 0.1-1 uM FtsA (40 min), 4 mM ATP (20 min), 5 uM FtsZ (5 min), 4 mM GTP (20 min). Stained with 1% uranyl acetate.
Escherichia coli FtsA = molecular target: B1; assay: as above; settings: both partners purified
[2] = molecular target: the molecule itself; assay: negative stain electron tomography with subtomogram averaging; FtsA minirings with FtsZ protofilaments on lipid monolayers; 300 kV, single-axis tilt series -60 to +60 degrees; 23 tomograms; 18,400 ring-like structures averaged and classified

binding result (Escherichia coli FtsA)	Binder	binding result [1]	stoichiometry N [2] [subunits]
binds	Escherichia coli FtsZ (natural protein, E. coli, UniProt P0A9A6 1-383, looked up, FtsZ, tubulin homologue, Escherichia coli, wild type; Assembled with GTP in the assay; also called WT FtsZ; source: E. coli BL21(DE3), from a pET11 plasmid, purified (ammonium sulfate precipitation)) MFEPMELTNDAVIKVIGVGGGGGNAVEHMVRERIEGVEFFAVNTDAQALRKTAVGQTIQIGSGITKGLGAGANPEVGRNAADEDRDALRAALEGADMVFIAAGMGGGTGTGAAPVVAEVAKDLGILTVAVVTKPFNFEGKKRMAFAEQGITELSKHVDSLITIPNDKLLKVLGRGISLLDAFGAANDVLKGAVQGIAELITRPGLMNVDFADVRTVMSEMGYAMMGSGVASGEDRAEEAAEMAISSPLLEDIDLSGARGVLVNITAGFDLRLDEFETVGNTIRAFASDNATVVIGTSLDPDMNDELRVTVVATGIGMDKRPEITLVTNKQVQQPVMDRYQQHGMAPLTQEQKPVAKVVNDNAPQTAKEPDYLDIPAFLRKQAD	binds	–
binds	FtsZ* (FtsZ L169R) (natural protein, E. coli, UniProt P0A9A6 1-383, looked up, FtsZ, Escherichia coli, gain-of-function mutant L169R (FtsZ*); Assembled with GTP in the assay; source: E. coli BL21(DE3), from a pET11 plasmid, purified (ammonium sulfate precipitation)) MFEPMELTNDAVIKVIGVGGGGGNAVEHMVRERIEGVEFFAVNTDAQALRKTAVGQTIQIGSGITKGLGAGANPEVGRNAADEDRDALRAALEGADMVFIAAGMGGGTGTGAAPVVAEVAKDLGILTVAVVTKPFNFEGKKRMAFAEQGITELSKHVDSLITIPNDKLRKVLGRGISLLDAFGAANDVLKGAVQGIAELITRPGLMNVDFADVRTVMSEMGYAMMGSGVASGEDRAEEAAEMAISSPLLEDIDLSGARGVLVNITAGFDLRLDEFETVGNTIRAFASDNATVVIGTSLDPDMNDELRVTVVATGIGMDKRPEITLVTNKQVQQPVMDRYQQHGMAPLTQEQKPVAKVVNDNAPQTAKEPDYLDIPAFLRKQAD	binds	–
–	B1	–	12
